Test results as given in IntAct's records for PubMed 11741956.

B1: Proto-oncogene tyrosine-protein kinase LCK (Mus musculus), P06240 (parent)
chain: MGCVCSSNPEDDWMENIDVCENCHYPIVPLDSKISLPIRNGSEVRDPLVTYEGSLPPASPLQDNLVIALHSYEPSHDGDLGFEKGEQLRILEQSGEWWKAQSLTTGQEGFIPFNFVAKANSLEPEPWFFKNLSRKDAERQLLAPGNTHGSFLIRESESTAGSFSLSVRDFDQNQGEVVKHYKIRNLDNGGFYISPRITFPGLHDLVRHYTNASDGLCTKLSRPCQTQKPQKPWWEDEWEVPRETLKLVERLGAGQFGEVWMGYYNGHTKVAVKSLKQGSMSPDAFLAEANLMKQLQHPRLVRLYAVVTQEPIYIITEYMENGSLVDFLKTPSGIKLNVNKLLDMAAQIAEGMAFIEEQNYIHRDLRAANILVSDTLSCKIADFGLARLIEDNEYTAREGAKFPIKWTAPEAINYGTFTIKSDVWSFGILLTEIVTHGRIPYPGMTNPEVIQNLERGYRMVRPDNCPEELYHLMMLCWKERPEDRPTFDYLRSVLDDFFTATEGQYQPQP

Variants of: B1
Conditions: with cbl_human CBL

Row | effect of a mutation on the interaction | Variant
1 | decreasing interaction | W97A
